Results reported in patent US20240043568A1.

Columns and labels:
[1] = biological target: human GPC3 on cells (human) (UniProt P51654); test: flow cytometry, CHO-human GPC3 cells
[2] = biological target: recombinant human GPC3 protein (human) (UniProt P51654); test: BLI (Octet), antibody on Protein A probe
[3] = biological target: recombinant human GPC3 protein (human) (UniProt P51654); test: BLI (Octet), antibody on Protein A probe; remark: listed apart in the source
[4] = biological target: recombinant cynomolgus monkey GPC3 full-length protein (cynomolgus monkey); test: ELISA on coated recombinant cynomolgus monkey GPC3 protein, OD450 [panel Recombinant cynomolgus monkey GPC3 protein]
[5] = biological target: human GPC3 on cells (human) (UniProt P51654); test: flow cytometry on human GPC3-CHO stably-transfected cells, MFI
[6] = biological target: recombinant human GPC3 protein (human) (UniProt P51654); test: ELISA, coated antigen 1 µg/ml
[7] = biological target: recombinant GST-human GPC3 stem protein (human); test: ELISA, coated antigen 1 µg/ml
Chain of recombinant GST-human GPC3 stem protein (human) (chain, as listed by the source limits assumed, form in doubt): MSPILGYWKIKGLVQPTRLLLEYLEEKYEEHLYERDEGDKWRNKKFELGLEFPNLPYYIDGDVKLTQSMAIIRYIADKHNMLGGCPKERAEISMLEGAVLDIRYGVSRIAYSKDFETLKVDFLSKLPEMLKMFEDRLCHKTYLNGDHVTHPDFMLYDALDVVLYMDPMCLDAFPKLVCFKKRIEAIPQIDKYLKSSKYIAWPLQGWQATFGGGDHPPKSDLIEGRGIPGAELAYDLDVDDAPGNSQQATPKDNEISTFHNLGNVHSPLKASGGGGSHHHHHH

[8] = biological target: recombinant cynomolgus monkey GPC3 full-length protein (cynomolgus monkey); test: ELISA, coated antigen 1 µg/ml
[9] = biological target: recombinant human GPC3 protein (human) (UniProt P51654); test: ELISA on coated recombinant human GPC3 protein, OD450 [panel Recombinant human GPC3 protein]
[10] = biological target: recombinant human GPC3 protein (human) (UniProt P51654); test: SPR (Biacore T200), antibody on Protein A chip, GPC3 as analyte
[11] = biological target: recombinant cynomolgus monkey GPC3 full-length protein (cynomolgus monkey); test: as above
[12] = biological target: human CD3 on T cells (human) (UniProt P07766); test: flow cytometry, human peripheral blood CD4+ T cells
[13] = biological target: human CD3 on T cells (human) (UniProt P07766); test: flow cytometry, human peripheral blood CD8+ T cells
[14] = biological target: human CD3 on T cells (human) (UniProt P07766); test: flow cytometry, Jurkat cells

## GC33 (antibody)
[1]
  EC50: 2.74 nM
[2]
  Kd: 4.17 nM
  koff: 0.000229 s⁻¹
  kon: 54900 M⁻¹ s⁻¹
[3]
  Kd: 1.35 nM
  koff: 0.000111 s⁻¹
  kon: 82600 M⁻¹ s⁻¹
[4]
  EC50 (read off the curve): 0.03 nM
[5]
  EC50 (read off the curve): 4 nM
[6]
  EC50: 0.074 nM
[7]
  EC50: 0.06 nM
[8]
  EC50: 0.16 nM
[9]
  EC50 (read off the curve): 0.03 nM
[10]
  Kd: 1.03 nM
  koff: 0.000185 s⁻¹
  kon: 181000 M⁻¹ s⁻¹
[11]
  Kd: 6.38 nM
  koff: 0.000429 s⁻¹
  kon: 67200 M⁻¹ s⁻¹

## KLH×CD3 (bispecific antibody)
[12]
  EC50: 77 nM
[13]
  EC50: 84 nM
[14]
  EC50: 27 nM

## OKT3-hIgG1 (antibody)
[14]
  EC50: 0.27 nM
